Assay results published in patent publication US20160011207A1, “DIAGNOSIS AND THERAPY OF CHRONIC INFLAMMATION-INDUCED DISORDERS” (VIRGINIA COMMONWEALTH UNIVERSITY, priority 2012, published 2016).
Entries after “also recorded” stand apart in the source; their conditions may differ.

Key:
[1] = test system: primary adipocytes, myoblasts and hepatocytes; assay: Insulin sensitizing effects of IGFBP-3 in cells treated with proteases and inhibitors (Example 7); type: cell-based; conditions: Example 7, written in present tense
From the text: The levels of the three NSPs and IGFBP-3 protease activity in sera from lean and obese mice fed with CD and HFD, respectively, for 16 weeks are investigated using Western immunoblotting, ELISAs and an IGFBP-3 protease activity assay. Further, the impact of PR3-induced proteolysis and inhibitors (Prolastin and a small peptide inhibitor) on insulin sensitizing effects of IGFBP-3 in primary adipocytes (Invitrogen/Life Technologies, Grand Islands N.Y.), myoblasts and hepatocytes (Eton Bioscience, Research Triangle Park, N.C.) is investigated. The cells are treated with IGFBP-3 or PR3 proteolyzed IGFBP-3 fragments with and without insulin, and analyzed for glucose uptake, levels of insulin receptor substrates (IRSs), glucose transporters (GLUTs), adiponectin (in adipocytes) and intracellular glycogen content (in hepatocytes) using a glucose uptake assay, qRT-PCR, Western immunoblotting and a glycogen assay kit. Further experiments are performed to treat cells with IGFBP-3 and PR3 in the presence and absence of Prolastin or the small peptide inhibitor(s) described herein. The inhibitory effects of NE and CG on IGFBP-3's insulin-sensitizing effects are also determined using similar laboratory methods. The involvement of IGFBP-3R on the insulin signaling pathway is also investigated by manipulating endogenous IGFBP-3R expression using IGFBP-3R siRNAs. […]

PR3 = biological target: T1, PR3 (Homo sapiens, UniProt P24158); assay: In vitro IGFBP-3 proteolysis by PR3, Western immunoblotting; type: biochemical; conditions: for inhibition of PR3-induced IGFBP-3 proteolysis (Western immunoblot, in words): FIG. 8 and 9A
T1 sequence (P24158 28-248): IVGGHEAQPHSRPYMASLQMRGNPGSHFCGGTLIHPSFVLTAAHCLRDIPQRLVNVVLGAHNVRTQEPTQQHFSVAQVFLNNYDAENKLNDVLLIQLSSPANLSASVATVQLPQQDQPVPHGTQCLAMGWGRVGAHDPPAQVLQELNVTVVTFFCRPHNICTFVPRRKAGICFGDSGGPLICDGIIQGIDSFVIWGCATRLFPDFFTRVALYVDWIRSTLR
Procedure: FIG. 4A-B. A, increased serum PR3 and IGFPR-3 proteolysis in high fat diet (HFD) mice. The increased IGFBP-3 proteolytic fragments and PR3 were detected in HFD compared with chow diet (CD) fed mice by Western immunoblotting using mouse IGFBP-3 or PR3 specific antibodies. […] IGFBP-3 proteolytic fragments were detected in recombinant IGFBP-3 (100 ng) and PR3 (500 ng) treated samples by Western immunoblotting.
FIG. 8. […] Recombinant IGFBP-3 (100 ng) was proteolyzed by treatment with […] PR3 for 60 min. at 37° C. (lane 2).
(§1) FIG. 9A-C. Inhibitory effect of the small peptide on NSP-induced IGFBP-3 proteolysis. […] Recombinant IGFBP-3 (100 ng) was proteolyzed by treatment with 100 nM PR3 for 60 min at 37° C. (lane 3). […] B. In vitro IGFBP-3 proteolysis by NE and CG. […] Recombinant IGFBP-3 (100 ng) was proteolyzed by treatment with NE (70 nM) and CG (200 nM) for 20 min. at 37° C. The treated samples were subject to Western immunoblotting using polyclonal IGFBP-3 antibodies. NE and CG proteolyze IGFBP-3 (lanes 2 and 7). […] C. The sequence of small inhibitory peptide (LIRCAML). Putative small inhibitory peptide binding site on PR3 ([…]) and NE ([…]), of which sequences are well conserved in both PR3 and NE.
Since it has been reported that PR3 appears to contribute to progression of chronic inflammatory diseases, we characterized PR3 as a specific IGFBP-3 protease in obese condition. The experiments were carried out using recombinant PR3 and IGFBP-3, and Western immunoblotting with IGFBP-3 specific antibody.
This peptide and/or suitable variants thereof can thus be used to treat individuals with chronic inflammation (obesity)-induced insulin resistance.

CG = biological target: T2, CG (Homo sapiens, UniProt P08311); assay: In vitro IGFBP-3 proteolysis by CG, Western immunoblotting; type: biochemical; conditions: recombinant IGFBP-3 100 ng; CG 200 nM, 20 min at 37° C.; FIG. 9B
T2 sequence (P08311 21-244): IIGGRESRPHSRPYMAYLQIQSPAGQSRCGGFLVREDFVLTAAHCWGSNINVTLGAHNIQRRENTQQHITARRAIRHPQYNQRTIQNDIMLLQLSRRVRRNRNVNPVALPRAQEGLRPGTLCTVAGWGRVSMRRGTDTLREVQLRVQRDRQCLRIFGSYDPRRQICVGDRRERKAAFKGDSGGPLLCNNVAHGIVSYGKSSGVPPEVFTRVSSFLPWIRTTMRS
Procedure: as §1

NE = biological target: T3, NE (Homo sapiens, UniProt P08246); assay: In vitro IGFBP-3 proteolysis by NE, Western immunoblotting; type: biochemical; conditions: recombinant IGFBP-3 100 ng; NE 70 nM, 20 min at 37° C.; FIG. 9B
T3 sequence (P08246 30-267): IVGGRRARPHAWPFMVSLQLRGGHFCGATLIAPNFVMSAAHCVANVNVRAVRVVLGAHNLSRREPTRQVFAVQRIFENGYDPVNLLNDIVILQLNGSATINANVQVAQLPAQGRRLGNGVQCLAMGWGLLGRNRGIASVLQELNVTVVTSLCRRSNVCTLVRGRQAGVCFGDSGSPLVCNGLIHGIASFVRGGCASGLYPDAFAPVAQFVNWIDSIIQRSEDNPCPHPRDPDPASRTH
Procedure: Inhibitory effect of the small peptide on NSP-induced IGFBP-3 proteolysis. […] B. In vitro IGFBP-3 proteolysis by NE and CG. […] Recombinant IGFBP-3 (100 ng) was proteolyzed by treatment with NE (70 nM) and CG (200 nM) for 20 min. at 37° C. The treated samples were subject to Western immunoblotting using polyclonal IGFBP-3 antibodies.

NSPs (PR3/NE/CG) = assay: In vitro IGFBP-3 protease assay with NSPs and inhibitors (Example 5); type: biochemical; conditions: recombinant IGFBP-3, NSPs (PR3/NE/CG); example written in present tense
From the text: Since PR3, NE and CG appear to be involved in inflammation and metabolic disorders, all three proteases are characterized with respect to IGFBP-3 proteolysis in vitro.

NSPs (PR3, NE, and CG) = assay: NSP-induced IGFBP-3 proteolysis with inhibitors (Example 10); type: biochemical; conditions: Example 10, written in present tense
From the text: The biological impact of NSPs (PR3, NE, and CG) on IGFBP-3 proteolysis and the antitumor actions of IGFBP-3/IGFBP-3R signaling is investigated, e.g. to characterize specific mechanisms by which NSPs modulate the biologic impact of IGFBP-3/IGFBP-3R on cell proliferation, apoptosis in CRC. Accordingly, the impact of NSPs on the antitumor and anti-inflammatory functions of IGFBP-3 in a variety of colon cancer cells (HT-29, Caco-2, HCT116 and LoVo) is investigated using recombinant IGFBP-3 (intact or NSP-proteolyzed fragments), NSPs and their inhibitors. The involvement of IGFBP-3R on IGFBP-3's effects is tested by manipulating endogenous IGFBP-3R expression using additional lentiviral-IGFBP-3-GFP, IGFBP-3R siRNAs, Adeno-IGFBP-3R, NSPs and protease inhibitors in the same cell systems.
Human and mouse specific IGFBP-3 antibodies (Abs)20, IGFBP-3R Abs20, IGFBP-3 protease assay, and adeno-, retro- and lenti-viral plasmids transfused with IGFBP-3, IGFBP-3R or their small hairpin RNAs (shRNAs) are utilized in these investigations.
The differential impact of intact IGFBP-3 and IGFBP-3 fragments on induction of apoptosis, cell proliferation in CRC cells is quantified using a Cell death assay, WST assay and qRT-PCR and immunoblotting.

HFD C57BL/6 mice = assay: Insulin tolerance test (ITT) in HFD-induced obese mice (Example 6); type: in vivo; conditions: 60 mg/kg AAT for 7 weeks, 0.75 unit/kg insulin i.p., 15, 60, 90 and 120 min after insulin, p<0.05
Procedure: FIG. 10. Insulin tolerance test (ITT).
Assessment of body weight, fed and fasting glucose, intraperitoneal glucose tolerance test (IPGTT) and insulin tolerance test (ITT) were performed at 8, 15 weeks of HFD.
Weekly assessment of body weight was performed. IPGTT and ITT were analyzed at 8, 15 weeks of HFD.
Description of murine models: Six week old male C57BL6/J BomTac mice were obtained from Taconic, Hudson, N.Y., and kept at 22° C. on a 12:12-h light-dark cycle, with food and water ad libitum. All mice were placed on a normal rodent diet (ND) D12450B for 1 week and then divided into two groups and fed with ND and high fat diet (HFD) D12492 for 16 weeks. ND (D12450B, calories provided by fat 10%, protein 20%, Carbohydrate 70%) and HFD (D12492, calories provided by fat 60%, protein 20%, Carbohydrate 20%) were from Research Diets, new Brunswick, NJ52.
Insulin tolerance test (ITT): After a 7-day recovery period, an ITT was performed on the same mice. […]
Data Analysis: 1) Mice with HFD feeding and with/without NSP inhibitor treatments awere studied with assessment of body weight, fed and fasting glucose, IPGTT and ITT. Statistical analysis: Differences between groups are determined by ANOVA followed by Turkey post hoc tests or by Student t Test as appropriate. Significance is considered as p<0.05.

AOM-DSS-treated mice = assay: CAC mouse model, AOM-DSS-treated mice (Example 10); type: in vivo; conditions: AAT 60 mg/kg once weekly, Example 10, written in present tense
Procedure: Studies are also carried out to determine whether administration of the NSP inhibitor (Aralast) inhibits progression of CRC in a CAC mouse model.
First, serum NSPs, IGFBP-3 and IGFBP-3 proteolysis are determined during CRC development in AOM-DSS-treated mice with/without Aralast administration (60 mg/kg body weight once weekly) (6 mice/group). Serum NSPs (PR3,NE,CG), IGFBP-3, and proteolyzed IGFBP-3 and cytokines ([…], IL-6, IL-1β) are analyzed biweekly using Western immunoblotting, IGFBP-3 protease activity assays and mouse specific ELISAs (ELISA kits for PR3 from USCN life science; NE from Biotang USA; CG from CusaBio; TNF-α from Thermo Scientific; and IGFBP-3 from Sigma).
After sacrificing, mice colons are removed and flushed with phosphate-buffered saline (PBS) for macroscopic inspection. Tumor counts are performed in a blinded fashion. Tumor volume (V) is calculated […] by measuring length (L) and width (W) of the tumor with calipers and using the following formula: V={W×L×[(W+L)/2]}×0.52. Using paraformaldehyde fixed or fresh frozen tissue the proteins/genes involved in cell proliferation and inflammatory signaling are examined using Ki67 staining, apoptosis detection kit (Roche Dignostics GmbH) as well as immunoblotting and qRT-PCR for TNF-α, IL-6, IL-1β, NF-κB, IκBκ, IGFBP-3 and IGFBP-3R. […]

[2] = recombinant IGFBP-3 100 ng, 100 nM PR3, 60 min at 37° C.

Molecule: CC(C)[C@@H]1C(=O)N(S(C)(=O)=O)[C@@H]2CCN(C(=O)/C=C/CN3CCCCC3)[C@H]21.Cl [GW311616A, reference compound]
- effect on protease-induced IGFBP-3 proteolysis and inhibition of IGFBP-3's normal metabolic function [1]: reverse this effect

Molecule: LIRCAML (Synthetic peptide inhibitor)
- inhibition of IGFBP-3 proteolysis induced by 100 nM PR3 treatment (PR3; peptide at 0.5 μM, recombinant IGFBP-3 100 ng, 100 nM PR3, 60 min at 37° C.): more than 50%
- inhibitory effect on PR3 activity compared with AAT (PR3; peptide at 20 μM versus 100 nM AAT, 100 nM PR3): comparable to that of 100 nM AAT
- inhibition of PR3-induced IGFBP-3 proteolysis (Western immunoblot, in words) (PR3; [2]): potent inhibitory effect; also recorded: inhibited IGFBP-3 proteolysis in a dose-dependent manner (0.5-20 μM); also recorded: inhibited IGFBP-3 proteolysis in a does-dependent manner (0.05-1 μM)
- inhibition of IGFBP-3 proteolysis by CG (in words) (CG): inhibited IGFBP-3 proteolysis by NE or CG in a dose-dependent manner (0.5-1 μM)
- inhibition of IGFBP-3 proteolysis by NE (in words) (NE): inhibited IGFBP-3 proteolysis by NE or CG in a dose-dependent manner (0.5-1 μM)
- effect on protease-induced IGFBP-3 proteolysis and inhibition of IGFBP-3's normal metabolic function [1]: reverse this effect
- NSP-induced proteolysis of IGFBP-3 (Example 5, in words) (NSPs (PR3/NE/CG)): blocked

Molecule: α-1-antitrypsin [AAT]
- inhibition of PR3-induced IGFBP-3 proteolysis (Western immunoblot, in words) (PR3; [2]): inhibited
- inhibition of PR3-induced IGFBP-3 proteolysis (FIG. 4B, in words) (PR3; recombinant IGFBP-3 (100 ng) and PR3 (500 ng)): completely inhibited; also recorded: Few IGFBP-3 proteolytic fragments were detected
- inhibition of IGFBP-3 proteolysis by CG (in words) (CG): inhibited
- NSP-induced proteolysis of IGFBP-3 (Example 10, in words) (NSPs (PR3, NE, and CG)): blocked
- blood glucose levels in ITT versus PBS control (HFD C57BL/6 mice): significantly lower
- tumor incidence and size compared with untreated mice (AOM-DSS-treated mice): decreases tumor incidence and size
- NSP-induced proteolysis of IGFBP-3 (Example 5, in words) (NSPs (PR3/NE/CG)): blocked
